Data as given in patent US20140314780A1, “Compositions Using Antibodies Directed to GPNMB and Uses Thereof” (Celldex Therapeutics, Inc., priority 2008, published 2014).
Entries after “also recorded” stand apart in the source; their conditions may differ.

Key:
[1] = tested on: shed GPNMB; assay: GPNMB shedding: immunoblotting of conditioned media (supernatants); type: cell-based, human; settings: conditioned media of WM2664, UACC62; 48 hours (FIG. 7A, 7B)
Description: Shedding of membrane proteins is a common phenomenon that may affect ADC activity. To investigate potential GPNMB shedding, conditioned media collected from melanoma cell lines was immunoblotted for GPNMB (FIG. 7A). […] Shed GPNMB was also readily detected in conditioned media harvested from several other melanoma and glioblastoma cell lines examined, although a very low level of shed GPNMB was found in conditioned media harvested from A375 melanoma cells, a finding which is consistent with the low basal level of GPNMB expression by these cells.

[2] = tested on: GPNMB surface expression on WM2664 melanoma cells; assay: Flow cytometry of GPNMB surface expression, WM2664 cells; type: cell-based, human; settings: for GPNMB surface expression, flow cytometry GeoMean: WM2664, CR011 (anti-GPNMB) primary antibody; for GPNMB surface expression: melanoma cells (WM2664), 48 hours (Table 37, bottom right)
Experimental: The following day, cells were treated as indicated in the figures/legends, harvested with versene (Invitrogen), washed with PBS and incubated with primary antibody (10 μg/mL) diluted in staining buffer (PBS pH 7.4, 4% FBS, 0.1% sodium azide) for 30 minutes on ice. […] After incubation with primary antibody, samples were washed with staining buffer and then incubated with secondary antibody (PE-conjugated anti-human antibody; 1:100) for 30 minutes on ice. After incubation, samples were washed with staining buffer and examined on a Becton Dickinson FACSCalibur flow cytometer (BD Immunocytometry Systems, San Jose, Calif.). Data analysis was performed with Becton Dickinson Cell Quest software and the geometric mean fluorescence intensity (GeoMean) was determined for each sample.
For the data shown in Table 37, flow cytometry was performed on intact, non-permeabilized cells using the indicated primary monoclonal antibodies. The CR011 antibody utilized was not MMAE-conjugated, but is the same antibody used to generate CR011-vcMMAE. The results are reported as GeoMeans. For the data shown in the top panel of Table 37, A375 (melanoma) or SF539 (glioblastoma) cells were treated with the indicated concentrations of MEKi (U0126), RAFKi (553013) or ERKi (FR180204) for 12, 24 or 48 hours prior to analysis. For the data shown in the bottom left panel of Table 37, SKMEL2 (melanoma) cells were treated with MEKi (U0126; 10 uM), imatinib (20 uM), p38i (p38 MAPKi SB202190; 50 uM), NH4Cl (ammonium chloride; 20 mM) or CLQ (chloroquine; 20 uM) for 48 hours prior to analysis. For the data shown in the bottom right panel of Table 37, WM2664 (melanoma) cells were treated with MON (monensin) or MMPi (GM6001) for 48 hours prior to analysis.

[3] = tested on: GPNMB; assay: Immunoblotting for GPNMB on whole-cell lysates of cancer cell lines after drug exposure; type: cell-based, human; settings: whole-cell lysates, 48 hours (FIG. 7)
Description: Cancer cell lines were of human origin and were obtained from the American Type Culture Collection (Manassas, Va.) and from the National Cancer Institute (Bethesda, Md.) and cultured in RPMI-1640 supplemented with 10% FBS (growth media). Sources of reagents were as follows: RAFKi (553013), MEKi (U0126), MEKi (PD98059), MEKi (444939), ERKi (FR180204), p38 MAPKi (SB202190), p38 MAPKi (SB203580), aurora kinase inhibitor (189404), JNK inhibitor (420119), MMPi (GM6001) were from EMD Chemicals (San Diego, Calif.). ERKi (A6355), RAFKi: (GW5074), ammonium chloride (NH4Cl), chloroquine, monensin, cyclohexamide and emetine were from Sigma (Saint Louis, Mo.). HSP90i (geldanamycin) was from AG Scientific (San Diego, Calif.) and imatinib (Gleevec) was purchased from a pharmacy.
Cells were seeded in 6-well tissue culture dishes at a subconfluent density and allowed to attach overnight. For harvesting cell lysates, media was removed, cells were briefly washed with serum-free media and then 1× Tris-glycine SDS sample buffer (Invitrogen, Carlsbad, Calif.) supplemented with 10 mM dithiothreitol (Sigma) was added directly to the wells. Cell lysates were then collected and boiled for 10 minutes. For preparing conditioned media, drug treatments were performed in a minimum volume of growth media (1.5 mL/well). Following 48 hours of incubation, conditioned media was collected, briefly microfuged, mixed with an equal volume of 2× Tris-glycine SDS sample buffer (Invitrogen, Carlsbad, Calif.) supplemented with 20 mM dithiothreitol (Sigma) and boiled for 10 minutes. For cell lysates, samples were quantified and an equal quantity of protein/lane was resolved on 4-20% gradient polyacrylamide gels (Invitrogen) and then transferred to nitrocellulose filters (Invitrogen). The volume of conditioned media loaded/lane was adjusted based on the protein concentration determined in the respective cell lysates. Immunoblotting was performed using standard procedures and the following primary antibodies: MARTI (sc-20032), TYRP2 (sc-25544), TYRP1 (sc-25543), PMEL17 (sc-15010), MAGEA1 (sc-20033), MCSP (sc-20162), MTf (sc-26651), MCAM (sc-18942), pp-ERK (sc-7976) and ERK (sc-94) (preceding antibodies were purchased from Santa Cruz Biotechnologies, Santa Cruz, Calif.), GPNMB (AF2550; R & D Systems, Minneapolis Minn.), actin (A5060; Sigma). Following incubation with the appropriate horseradish peroxidase-conjugated secondary antibodies, enhanced chemiluminescence (GE Healthcare, Chalfont St. Giles, United Kingdom) was used for detection.

[4] = tested on: shed GPNMB; assay: Immunoprecipitation of shed GPNMB; type: binding, human
[5] = tested on: CG56972 expressing cells; assay: Effect of naked mAb on CG56972 expressing cells in vivo; settings: naked IgG2 mAb
Description: (§1) Fully human monoclonal antibodies (mAb)-IgG2 to CG56972/GPNMB, an antigen predominantly found on the surface of melanoma and brain tumor cells, were generated. […] Thus it was examined whether isotype switching from an IgG2 to an IgG1 might enable the mAb to kill human melanoma cells through ADCC effector functions.

[6] = tested on: CG56972 expressing cells; assay: Effect of naked mAb on CG56972 expressing cells in vitro; type: cell-based; settings: naked IgG2 mAb
Description: as §1

[7] = biological target: T1, GPNMB (Homo sapiens, UniProt Q14956); assay: Epitope binning of anti-GPNMB antibodies (competitive binding)
T1 construct: V5His; made in house
T1 sequence (Q14956 23-492): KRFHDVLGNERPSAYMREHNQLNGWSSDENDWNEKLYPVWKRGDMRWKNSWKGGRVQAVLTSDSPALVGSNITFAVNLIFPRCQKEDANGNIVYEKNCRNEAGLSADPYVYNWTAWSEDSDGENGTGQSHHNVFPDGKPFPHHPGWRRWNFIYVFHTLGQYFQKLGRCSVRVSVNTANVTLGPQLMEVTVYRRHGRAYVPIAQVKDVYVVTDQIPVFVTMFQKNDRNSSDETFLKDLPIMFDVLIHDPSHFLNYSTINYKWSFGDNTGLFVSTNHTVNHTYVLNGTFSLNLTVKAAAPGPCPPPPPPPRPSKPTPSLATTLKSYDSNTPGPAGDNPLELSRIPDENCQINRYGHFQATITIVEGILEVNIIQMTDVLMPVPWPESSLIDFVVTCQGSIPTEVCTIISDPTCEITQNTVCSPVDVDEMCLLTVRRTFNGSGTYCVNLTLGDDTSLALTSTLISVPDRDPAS
Description: Certain antibodies, described herein were binned in accordance with the protocol described in U.S. Patent Application Publication No. 20030157730. […] Competitive binding by antibodies from […] supports antibody specificity for similar or adjacent epitopes. Non competitive binding supports antibody specificity for unique epitopes.
Three bins were created to further test the binding of six anti-GPNMB antibodies. Bin 1 included GPNMB antibodies (1.2.1), (1.10.1), and (2.22.1). Bin 2 included GPNMB antibodies (2.3.1) and (1.15.1), and Bin 3 included GPNMB antibody (2.10.1). The results of the binning assays are provided below in Tables 4 and 5.

## CNC(=O)[C@H](Cc1c[nH]c2ccccc12)NC(=O)[C@@H](CC(=O)NO)CC(C)C [GM6001]
[1]
  GPNMB shedding: decreased or eliminated
[2]; MMPi 25 uM
  GPNMB surface expression, flow cytometry GeoMean: 55.9
[2]; MMPi 50 uM
  GPNMB surface expression, flow cytometry GeoMean: 68.9
[2]; MMPi 100 uM
  GPNMB surface expression, flow cytometry GeoMean: 66.8
[2]
  GPNMB surface expression: increased GPNMB surface expression

## CC[C@@]1([C@@H]2O[C@@H]([C@H]3O[C@@](O)(CO)[C@H](C)C[C@@H]3C)C[C@@H]2C)CC[C@H]([C@]2(C)CC[C@]3(C[C@H](O)[C@@H](C)[C@@H]([C@@H](C)[C@@H](OC)[C@H](C)C(=O)O)O3)O2)O1 [monensin]
[3]
  faster migrating ~110 kDa GPNMB species: increased the expression
  slowest migrating cell-associated ~130 kDa GPNMB species: decreased or eliminated
[1]
  GPNMB shedding: decreased or eliminated; also recorded: strong inhibition
[2]; MON 250 nM
  GPNMB surface expression, flow cytometry GeoMean: 88.9
[2]; MON 500 nM
  GPNMB surface expression, flow cytometry GeoMean: 86.8
[2]
  GPNMB surface expression: increased GPNMB surface expression

## CR011: fully human monoclonal antibody that specifically binds to GPNMB; VH SEQ ID NO: 20, VL SEQ ID NO: 29
[4]
  recognition of shed GPNMB: recognize shed GPNMB
[5]
  effect on CG56972 expressing cells: no effect
[6]
  effect on CG56972 expressing cells: no effect
[7]; Table 4
  epitope bin: VIII
[7]; Table 4, paired with column BB
  binning assay signal (antibody pair matrix): −19
[7]; Table 4, paired with column antibody 1.1
  binning assay signal (antibody pair matrix): 91
[7]; Table 4, paired with column antibody 1.11
  binning assay signal (antibody pair matrix): 10
[7]; Table 4, paired with column antibody 1.12
  binning assay signal (antibody pair matrix): 15
[7]; Table 4, paired with column antibody 1.13
  binning assay signal (antibody pair matrix): 13
[7]; Table 4, paired with column antibody 1.15
  binning assay signal (antibody pair matrix): 0
[7]; Table 4, paired with column antibody 1.2
  binning assay signal (antibody pair matrix): 79
[7]; Table 4, paired with column antibody 1.3
  binning assay signal (antibody pair matrix): 71
[7]; Table 4, paired with column antibody 1.5
  binning assay signal (antibody pair matrix): 15
[7]; Table 4, paired with column antibody 1.7
  binning assay signal (antibody pair matrix): 21
[7]; Table 4, paired with column antibody 1.8
  binning assay signal (antibody pair matrix): 8
[7]; Table 4, paired with column antibody 1.9
  binning assay signal (antibody pair matrix): 12
[7]; Table 4, paired with column xV5
  binning assay signal (antibody pair matrix): 89
[7]; Table 5, Cut-off = 90
  epitope bin: VIII
[7]; Table 5, paired with column BB
  binning assay signal (antibody pair matrix): 59
[7]; Table 5, paired with column antibody 1.1
  binning assay signal (antibody pair matrix): 127
[7]; Table 5, paired with column antibody 1.11
  binning assay signal (antibody pair matrix): 19
[7]; Table 5, paired with column antibody 1.12
  binning assay signal (antibody pair matrix): 21
[7]; Table 5, paired with column antibody 1.13
  binning assay signal (antibody pair matrix): 5
[7]; Table 5, paired with column antibody 1.15
  binning assay signal (antibody pair matrix): 0
[7]; Table 5, paired with column antibody 1.2
  binning assay signal (antibody pair matrix): 90
[7]; Table 5, paired with column antibody 1.3
  binning assay signal (antibody pair matrix): 51
[7]; Table 5, paired with column antibody 1.5
  binning assay signal (antibody pair matrix): −9
[7]; Table 5, paired with column antibody 1.7
  binning assay signal (antibody pair matrix): 17
[7]; Table 5, paired with column antibody 1.8
  binning assay signal (antibody pair matrix): 12
[7]; Table 5, paired with column antibody 1.9
  binning assay signal (antibody pair matrix): 19
[7]; Table 5, paired with column xV5
  binning assay signal (antibody pair matrix): 125
[7]; six anti-GPNMB antibodies, three bins
  epitope bin: Bin 2
